Four molecules from paper PMC12552936, “Protein inhibitor of retinal membrane guanylyl cyclase suppresses cGMP synthesis in photoreceptors” (The Journal of Biological Chemistry, 2025) can be followed below.

Positions count from the first letter of the chain named. Names may count otherwise.

The target in assay [1] is mOrange-tagged RetGC1 (retinal membrane guanylyl cyclase 1) (human) (UniProt Q02846).
In assay [2] the target is T1, mOrange-tagged RetGC1 (retinal membrane guanylyl cyclase 1) (human, UniProt Q02846 52-1103).
T1 sequence (looked up): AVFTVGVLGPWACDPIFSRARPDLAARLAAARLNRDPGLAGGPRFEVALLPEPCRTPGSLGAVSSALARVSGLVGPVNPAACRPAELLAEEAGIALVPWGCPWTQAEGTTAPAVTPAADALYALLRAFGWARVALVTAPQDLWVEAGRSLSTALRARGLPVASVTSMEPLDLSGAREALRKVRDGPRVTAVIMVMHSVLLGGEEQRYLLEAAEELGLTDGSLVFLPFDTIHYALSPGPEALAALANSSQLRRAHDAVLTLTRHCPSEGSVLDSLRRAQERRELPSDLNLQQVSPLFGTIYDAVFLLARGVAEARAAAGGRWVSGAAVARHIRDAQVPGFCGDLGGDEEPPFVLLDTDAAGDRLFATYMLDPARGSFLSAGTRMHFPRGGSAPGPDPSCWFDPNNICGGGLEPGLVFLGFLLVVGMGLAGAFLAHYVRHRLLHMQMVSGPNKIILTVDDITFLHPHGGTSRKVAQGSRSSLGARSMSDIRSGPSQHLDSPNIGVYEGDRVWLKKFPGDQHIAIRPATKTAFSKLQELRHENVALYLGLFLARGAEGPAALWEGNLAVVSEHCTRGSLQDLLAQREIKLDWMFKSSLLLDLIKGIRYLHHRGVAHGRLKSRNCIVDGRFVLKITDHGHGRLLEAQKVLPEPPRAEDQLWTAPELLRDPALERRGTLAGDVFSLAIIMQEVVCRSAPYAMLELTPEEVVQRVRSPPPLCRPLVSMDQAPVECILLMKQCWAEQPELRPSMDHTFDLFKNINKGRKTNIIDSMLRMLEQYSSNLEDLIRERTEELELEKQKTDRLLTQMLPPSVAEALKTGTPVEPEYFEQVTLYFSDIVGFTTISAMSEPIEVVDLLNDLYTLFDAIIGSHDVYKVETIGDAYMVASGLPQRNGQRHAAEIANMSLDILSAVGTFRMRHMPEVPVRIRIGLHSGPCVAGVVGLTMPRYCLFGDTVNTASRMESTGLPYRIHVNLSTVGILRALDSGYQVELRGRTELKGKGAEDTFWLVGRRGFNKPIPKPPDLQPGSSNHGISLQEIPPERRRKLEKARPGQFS
Kind of assay: cell-based or functional assay.

For assay [3], the target named is native RetGC of the mouse retina (endogenous RetGC in retinal homogenates and isolated rod outer segments).

Take “M26R/L176F GCAP1 (from UniProt P46065 1-205) (natural protein)”: in assay [1], the inhibition of the activity of recombinant RetGC1 in HEK293 membranes reconstituted with 1 μM GCAP1 (blocked pair: RetGC1:GCAP1), 2 mM EGTA, 10 mM MgCl2; IC50 is 300 nM.

B1: M26R GCAP1 (natural protein)
chain: MGNIMDGKSVEELSSTECHQWYKKFRTECPSGQLTLYEFRQFFGLKNLSPWASQYVEQMFETFDFNKDGYIDFMEYVAALSLVLKGKVEQKLRWYFKLYDVDGNGCIDRDELLTIIRAIRAINPCSDSTMTAEEFTDTVFSKIDVNGDGELSLEEFMEGVQKDQMLLDTLTRSLDLTRIVRRLQNGEQDEEGASGRETEAAEADG
modifications: N-terminal myristoyl
Regarding B1, the inhibition of the activity of recombinant RetGC1 in HEK293 membranes reconstituted with 1 μM GCAP1 (blocked pair: RetGC1:GCAP1), 2 mM EGTA, 10 mM MgCl2; IC50 in assay [1] was 640 nM.

B2: GCAP1-GFP (wildtype GCAP1 tagged with GFP) (natural protein, bovine, UniProt P46065 1-205, looked up)
chain: B1 chain with R26M
In the case of B2, the “activation of recombinant human RetGC1 by Mg2+GCAP1 in the absence of Ca2+, dose dependence (Fig. 3A inset); EC50” value in assay [2] was ~1500 nM.

B3: PIGCY-GFP (protein inhibitor of retinal guanylyl cyclase, M26R/G86R/L176F GCAP1, tagged with GFP at the C-terminus) (designed binder)
chain: B1 chain with G86R, L176F
B3 gave a total RetGC activity in the rod outer segment fraction isolated from wildtype mouse retinas with 3 μM PIGCY (32 without PIGCY) (nmol cGMP/min/mg rhodopsin) in assay [3] of 11. Further, in assay [2], the “inhibition by PIGCY of RetGC1 preactivated by 1 μM bovine recombinant GCAP1 (blocked pair: RetGC1:bovine GCAP1), 2 mM EGTA, 10 mM MgCl2; IC50” value came out at 51 nM; the “inhibition by PIGCY of RetGC1 preactivated by 1 μM human recombinant GCAP1 (blocked pair: RetGC1:human GCAP1), 2 mM EGTA, 10 mM MgCl2; IC50” value was determined as 75 nM; the “inhibition by PIGCY of RetGC1 preactivated by 1 μM mouse recombinant GCAP1 (blocked pair: RetGC1:mouse GCAP1), 2 mM EGTA, 10 mM MgCl2; IC50” value came out at 91 nM; the “inhibition of the activity of recombinant RetGC1 in HEK293 membranes reconstituted with 1 μM GCAP1 (blocked pair: RetGC1:GCAP1), 2 mM EGTA, 10 mM MgCl2; IC50” value was found to be 52 nM. The “reduction of Vmax of recombinant human RetGC1 in HEK293 membranes reconstituted with 2 μM wildtype GCAP1 by 0.35 μM PIGCY (blocked pair: RetGC1:GCAP1)” value in assay [2] is > 3 fold.
